Assay: soluble on expression in E. coli; label from the status in PepcDB or PDB records

Which “soluble on expression in E. coli” value does the source give for “MLSLAFGVNDIYEYEGKEYKLDLAFDNVLRVIDLTEDNSLSDVFRANLAIDVLFADDMPWPRSNEEDEYANIEEKSLVLIDIFTNYIVKENDDGLLYDIDGNKMPSATNNEDAEEIASYSLTQDADYIYASFLQDYNIDLLDSRGKMHWYKFRALLESLRDDTTIKTIIGIRQAELPSGKGTEKERNELIKLKNRYKLKD” here?
Its value is “not soluble”.

For “MLSLFALSEENKPELDCVANPTLLPHDIMYFDGFLSSEDEAFVADRLDAGEWSTELKRRVQHFGYRYDYKVRAVTPDAYLGPLPPWLGLFAERLVADGYCRTVPDQVIANEYLLGQGISAHVDCVPCFDDTIVSISLLSACEMVFRDLRGPGIRSVLHPRSGVLLRGSSRYDWTHEIPARKSDIVNGVKTARSRRISLTFRKVLGLKRPLEHHHHHH”, which “soluble on expression in E. coli” value is on record?
Its value is “not soluble”.

With “MLSLPPPEFYKLWIINKSPYQLFNIYRSGIMKVKVLDASAIIHGYNPIIEEGEHYTTPEVLEEIESKKIIVEQALDFGKLKIMSPNREYIKKVEEVVKKTGDNLSQQDIGVLALALNLNAILYTDDYGIQNVAKKLNIEVRGIAFEPTNKDFIWRKICEGCKKLYPVDYEEDICEICGSPLKRKMVKSRLKKKRKKKLEHHHHHH” as the sequence, how does the “soluble on expression in E. coli” value read?
Its value is “soluble”.

With “MLSVSPLLQSPSSASMRFLSLDAYGRVLDWISWQDAACLYVRNAVSWTLGDPCLSIHGGISRLTGKRSVIALHPIIASRGHARTYVPVPTPALTNQALFARDDHLCLYCGQQFSRFQLTRDHVIPISKGGLDTWENVVTACFHCNSLKANRTPQQAGMRLLAVPYRPSWIEHLILSNRNILADQMAFLKAQLPKRSKLSRNLEHHHHHH” as the sequence, how does the “soluble on expression in E. coli” value read?
Its value is “not soluble”.

With “MLTFNDNKAGMNGLDKEKITKVIEENTSASYSSFSKKQQSRIEEKVLEIKNRLQTATREERQKSEILMENLEMKLESSRDLSRDCVCIDMDAYFAAVEMRDNPALRTVPMAVGSSAMLSTSNYLARRFGVRAGMPGFISNKLCPSLTIVPGNYPKYTKVSRQFSQIFMEYDSDVGMMSLDEAFIDLTDYVASNTEKKTFKRHRFGGDCPCWLPRFDENENTLEDLKIEESICPKCEKSRKIYYDHVEFGTGREEAVREIRFRVEQLTGLTCSAGIASNFMLAKICSDLNKPNGQYVLENDKNAIMEFLKDLPIRKVGGIGRVCEAQLKAMDIQTVGDMNLKKNLYPLCFTPLSQESFLRTALGLPGRPSESDPRRKSISVERTFSPTSDFNILLEEHQEICRMLEEDVRKSGIVGGKTVTLKLKLSSFDVLTRSLTPSDVVKSLEDIQKFSLELLEKEKGKEIRLLGVRLSQLIFEEDEKKRSKTVCQKILKTITDKYKAMFSSIFLRHFISDHRVLE” as the sequence, how does the “soluble on expression in E. coli” value read?
Its value is “not soluble”.

Which “soluble on expression in E. coli” value does the source give for “MLTKANPPPSKTSPLKVWAVSDGRAGIEAQVVGLAEAISRLAPCEVTVKRVGWQGNIGRLPWWLNLLPKRWLTQESGVPDSRNPDDWPDLWIAAGRATLPLSIRAKRWSGGKSFVVQIQDPRVPPHMFDLVIPPKHDRMSGDNILPITGSPHRVTPQRLAAEYEAFQDLIEPLPRPRVAVLVGGKSKAFDLSSERAAQIAHSIQIPLEQDGGSLLMTFSRRTPETARALMTARLRHLPGVVWNGEGPNPYFAFLAAADYILVTEDSTNMATEAASTGKPVFVLKMDGSSLKFRLFHEELERQGAARPYGGAFHGWTYTPVNETDRAAREVLARIGLEHHHHHH” here?
Its value is “not soluble”.

For “MLTPPPDSKISTTDKSLDKLSAPLDMLKQMNESTMEQTKLDELRKKMSLQAEILNKAKADNDMFFRLLIELMSLKLQGELFKEQLSKISKESGYDSAQSALIQATNSEGQSPLQYALQKQDFSTAKYFLDNGAKAGPIEKAVFEIALDSKAAKEFGFPPLPPEKEKLHPVKNFGLVLGIKTTSVDGTPSQFGHIAPTYQLMTDSVSHFAKSHPGNKNFQEIANAFQFSNEASAFKFSTPQRNPEAGNDLARRIQGGELTTIPVSCKGHAMGLSYVPDGPGSKSGYLVYTNRGLGAKSSEHGTHIFRIEDSSKITPEFINNMTSGHSNGASHDEIMSQIKAAAGNKEPIHHIKQKGQKNDNCTIANSKSNIEGILLCQKAREVGGFDKLTESDMDSVKKEYKEFTKHMRVEKVNELAKALKENPQDPDLNNLTKEYLKQHPNADPKLKQTLETALKQASESSMTLSQPGKTI”, which “soluble on expression in E. coli” value is on record?
Its value is “not soluble”.

For “MLTPPSLSLYIHIPWCVQKCPYCDFNSHAQKGEIPEQEYLDALLQDLDRDIERYQLKGDPRLLHSIFIGGGTPSLISAEGIARLLQGVAERIAFKPEIEITMEANPGTIEAQRFAGYRTAGVTRISIGVQSFEPEKLARLGRIHGQQEAVRAAQLAHQIGLNSFNLDLMHGLPDQTPEQALADLDQAIALNPPHLSWYQLTIEPNTLFYSKPPKLPDEDALWDIFELGHQKLSDAGYVQYEISGYSKPGYQCQHNLNYWRFGDYLGIGCGAHGKLSFADGRIVRTTKTKHPRGYLAALNNLAKAYLDSEQLVADQDKPFEFFMNRFRLIEPCPKADFTATTGLTIDVIRPTLDWALSEGYLSEDDQHWQITEKGKLFLNDLLEAFMADEEELEHHHHHH”, which “soluble on expression in E. coli” value is on record?
Its value is “not soluble”.

Which “soluble on expression in E. coli” value does the source give for “MLTQQQIDHIYDSLGCPLHFLWSYIGTAHGLSHDQADPDSFEERKKDFFFIVGKLLDDGLLKLGNRKTELIMEGNIEELVEMFRKSLPASDEEIDQEVGGLWFFTDCPFVAAWVYKGAGENGEDEYDWC” here?
The value was “not soluble”.

With “MLVVLAISLAVTAVCAQYGSGPANNPPASSYSSNVYYPPPVYGSVYWDYDSGSREHRHKQCPRLRAYVGEFPGIPEEAFYPPIIRYVKYNRKVTALVVCDRDEKNLNFLFARHNKTRDVRSASVVAIGSTAGVTLVCNRDDRRYEGFVIDMNATTNGFSKKIEITQLTCLGLDKTIIGLPVEHGVQQLAQKIQEILEDDFFVPVIPSRRKRQAGGATANSAESTTEAADTESTTEAAATETPAAESTTTEASATDAAATEASATDAAATEGAVTKAAAGVTEESATEVITVATTPASPDAALNNAINELGKILGQVF” as the sequence, how does the “soluble on expression in E. coli” value read?
Its value is “not soluble”.

For “MLWWEEVEDSYEREDVQKKTFTKWVNAQFSKFGKQHIENLFSDLQDGRRLLDLLEGLTGQKLPKEKGSTRVHALNNVNKALRVLQNNNVDLVNIGSTDIVDGNHKLTLGLIWNIILHWQVKNVMKNIMAGLQQTNSEKILLSWVRQSTRNYPQVNVINFTTSWSDGLALNALIHSHRPDLFDWNSVVSQQSATQRLEHAFNIARYQLGIEKLLDPEDVDTTYPDKKSILMYITSLFQVLPQQVSIE”, which “soluble on expression in E. coli” value is on record?
The value was “soluble”.

With “MLYQSETLQLHWLENGIAELVFDAPGSVNKLDTKTVANLGEALNVLEKQSELKGLLLRSAKTALIVGADITEFLSLFNAPPEKLHQWLVFANTIFNRLEDLPVPTISAINGYALGGGCECILATDFRIASPEARIGLPETKLGIMPGFGGSVRLPRLLGADSALEIIATGKDVTANDALKIGLVDAVVDPEKLVGSALTMLKQAIDGKLDWQAARRPKLEPLKLNPTEAAMCFTIAKGRVMQVAGKHYPAPLTAVKTIEAAAKFGRTEALNLETNSFVPLAGSNEARALVGIFLNDQYVKAQAKKLSKGVAAPKLAAVLGAGIMGGGIAYQSALKSVPVIMKDINENSLDLGMNEAAKLLNKQLERGKVDGLKMASILATIRPTLDYAGIERAQVIVEAVVENPKVKAAVLAEVEALIGEDTVLASNTSTIPIDQLAKSLKRPENFCGMHFFNPVHRMPLVEIIRGAKTSDKTLAAVVAYATQMGKTPIVVNDCPGFFVNRVLFPYLAGFGMLVRDGGDFHQIDKVMEKQFGWPMGPAYLLDVVGIDTAHHAQAVMAAGFPERMNKDYRDAVDVMFDNQRFGQKNGQGFYRYTQDAKGKPRKENDEQVDKLLAEISQPLQEFSDEDIIARTMIPMINEVVRCLEEGIIASAAEGDMALVYGLGFPPFHGGVFRYLDTLGSANYVEMAQRYAHLGALYHVPAGLRAKAEHNESYYPVAAALLDVSTNQPA” as the sequence, how does the “soluble on expression in E. coli” value read?
The value was “not soluble”.

Which “soluble on expression in E. coli” value does the source give for “MMDYPSIDTLLESAHIVTLPMKYPFMGLSERQAVLFEGPNSWAEYSPFMGCNDTRMWLASAIEYGWGNTNVLSVPNLDLDNTNFASRSKYGYIANPQTSNKDHSDNKRFYTQTKNHREIPVNAILPDIPASKMSEILGKDLQGCKCVKIKVGKHFQDRDIHRIRAVLDFMGADTMLRLDANCKWNVSETLNNLDVLEDNDLLENVSYIEQPCRTTRELITLKQKMDTRGYVTKIAIDESLRDLLLHWQKNRKWSNNSGITYTTELRETLSACDMLVLKLQPMGGMRAVADLLESIKNNIKVNVGYTVSSSLETSLGIEMGLALALNLPNITLPVGLATAGLLDADITDDPLLPNKGYITPRKIEVNKKLLNRYAADKRHVVWWHRRIRAAHRALFQDLSD” here?
The value was “soluble”.

For “MMFKNFPFFKGKKDTSFDHLVEEVKKGYIPEHIAIIMDGNGRWAKRRAMPRIAGHHEGMQVVKKITKFASKLNVKVLTLYAFSTENWKRPKKEVDYLMQLPEEFLGTFLPELIEENVQVRVIGQQDRLPTHTRRAMEKAMEETKENTGLILNFALNYGSRDEIVSAVQHMMKDSEEGKVRVEDVSEEMLSSYLMTSSLPDPELLIRTSGELRISNFMLWQIAYSEFWFTDVYWPDFTEEHLLNAITDFQHRGRRFGGV”, which “soluble on expression in E. coli” value is on record?
The value was “not soluble”.

For “MMFSLSKELEEYRAKIREYAQKTVREYAKQMDETNDGGDKIVKDLGEMGLLGMKQPTKYGGLGLGEMAFAIATEELGAESGGASHSLHTQQNALQLLVSVGGDSAQEWIEKGIKAKEVYAVALTEPQAGSDLGALQTTAKPDGNELVLNGEKIFTSAASFSTKMVVLARTSGNPGDRQGISLLLIDSKLPGIEIHKLDIMGIRGAGVSYVKFNNVRIPKDSIIGKEGDAYRGALKALMVSRNGYAGIAVGIARGALEEAISRAQSRKQFGKALIEQEWISFNLADAYIKVEAARLLTWRAAQLFDNDYEATTEASMAKYYAAVTATEVTRLALHIFGGHGLNRGSKVERLYRDAKIMEIAEGTNEMQLVAVSRLFQPKK”, which “soluble on expression in E. coli” value is on record?
The value was “soluble”.

Which “soluble on expression in E. coli” value does the source give for “MMHMDESRKEIIREEAKRAKAIAVEKYKAGDFAGAKEFALKAKQINPALGGLRRLNALLDVCMGFQKQVNGEVDWYDVLAVERTADFITIFNRYSTLAIDISLDRDESVGSGVKEALKILTDASKYFLERRELLPSRRVSGPINQLSRISCEGSKQKEPPPTNLLHVSKLTRMSEDAEIRHDISPNRLRSALARKATSVIKLSLETFVCSSPHNNVGAAEETDNKVMEE” here?
Its value is “soluble”.

For “MMHYDGMYYINEEEVRSNLTMKDTIDAIREAFEEYRAGRASSNTRVRTFSEGSVLNTMPASMEKYHILGHKTYSASRNGARFVVTLFDSRNNDLIAIVEANRLGQMRTGAVTAYATSILHPHVENFTIIGSGFQAETQLEGMITVSHPQSIRVYSRNYDHAKDFASRMSKQFGVDIRPVDNAEAALSDADTVSSITNSTSPVILRKYLGDEYHVNLAGSNYMNRREAEYEVLHDADLVVTEHYDQSMVESAEISEYVKFGGKPVELREIAGRYGEFSGLRRTVFKSMGIGLEDIATAYRVLRNLGIA”, which “soluble on expression in E. coli” value is on record?
The value was “soluble”.

For “MMIIVGVDAGGTKTKAVAYDCEGNFIGEGSSGPGNYHNVGLTRAIENIKEAVKIAAKGEADVVGMGVAGLDSKFDWENFTPLASLIAPKVIIQHDGVIALFAETLGEPGVVVIAGTGSVVEGYNGKEFLRVGGRGWLLSDDGSAYWVGRKALRKVLKMMDGLENKTILYNKVLKTINVKDLDELVMWSYTSSCQIDLVASIAKAVDEAANEGDTVAMDILKQGAELLASQAVYLARKIGTNKVYLKGGMFRSNIYHKFFTLYLEKEGIISDLGKRSPEIGAVILAYKEVGCDIKKLISD”, which “soluble on expression in E. coli” value is on record?
Its value is “soluble”.

With “MMKKPLLVLTALSLSLSAILSPLPATAALPLSVNGEQIPSLAPMLEKVTPAVVSIAVEGTQVSRQRLPDQFRFFFGPDFPTEQLQERPFRGLGSGVIINADKGYVVTNYHVINGAEKIRVKLYDGREFDAELVGGDEMSDVALLKLNKAKNLTEIRIADSDKLRVGDFAVAIGNPFGLGQTVTSGIVSALGRSGLNIENFENFIQTDAAINSGNSGGALVNLNGELIGINTAILGPNGGNVGIGFAIPSNMMKNLTDQILEFGEVKRGMLGVQGGEITSELADALGYESSKGAFVSQVVPDSAADKAGIKAGDIITSLNGKKIDTFSELRAKVATLGAGKTITLGVLRDGKNQNIDVTLGEQQNAKTKAESLHQGLSGAELSNTTDSDPIQGVKVTEVQKGSAAESYQLQKDDIIIGVNRKRVKNIAELRAIMEKSPNILALNIQRGERTLYLVVR” as the sequence, how does the “soluble on expression in E. coli” value read?
The value was “not soluble”.

From the DeepSol protein solubility set
